Eleven molecules from patent publication US20200157219A1 (SYSTIMMUNE, published 2020) can be followed below.

For orientation: EC50 (read off the curve) means the concentration that produces a half-maximal response. In general, Kd refers to the equilibrium constant for the complex coming apart. A high value points to lower affinity. As usually defined, the koff is the rate constant with which the complex falls apart. Higher therefore signals a short-lived complex. A word on the kon: it is the rate constant with which the complex forms. The low end stands for slower complex formation, the high end for faster complex formation.

B1: AB3HU (antibody, human IgG1, kappa, V domains shown)
VH: QEQVKETGGGLVQPGGSLRLSCAASGFTISSYGVSWVRQAPGKGLEWVALIFPGIGFKDYASWVNGRFTLSSDNAQNTVELQMNSLRAEDTAVYYCARDLDLWGQGTLVTVSS
VL: DIQMTQSPSSLSASVGDRVTITCQSSPSVYSNYLSWYQQKPGKVPKLLIYYASTLASGVPSRFSGSGSGTDFTLTISSLQPEDVATYYCAGGYSSSTRAFGGGTKVEIKR
notes: Humanized, human gamma-1 / kappa constant domains as in the full-length entries; also called humanized form of antibody AB3
B2: AB2HU (antibody, human IgG1, kappa, V domains shown)
VH: QEQLLESGGGLVQPGGSLRLSCTASGFSFSSYWMCWVRQAPGKGLEWIGCITTGSGSTYYASWAKRRFTISKDNSKNTVTLQMNSLRAEDTAVYYCTRAFDLWGQGTLVTVSS
VL: DIQMTQSPSSLSASVGDRVTITCQASQSIYSYLNWYQQKPGKAPKLLIYGASNLASGVPSRFSGSGSGTDFTLTISSLQPEDFATYYCQSSWLSGAVGNAFGGGTKVEIKR
notes: Humanized, human gamma-1 / kappa constant domains as in the full-length entries; also called humanized form of antibody AB2
B3: AB1HU (antibody, human IgG1, kappa, V domains shown)
VH: EVQLVESGGGLVQPGGSLRLSCAASGFDFSSGYWICWVRQAPGKGLELIACIYAGTSGSTSYASWARGRFTISETSKNTVTLQMNSLRAEDSAVYYCARNLYTYNSLWGQGTLVTVSS
VL: DIQMTQSPSTLSASVGDRVTITCQSSQSVYDNNWLAWYQQKPGKAPKLLIYTVSTLASGVPSRFSGSGSGTEFTLTISSLQPDDFATYYCQGTYYSSGWNFAFGGGTKVEIKR
notes: Humanized, human gamma-1 / kappa constant domains as in the full-length entries; also called humanized form of antibody AB1
B4: AB4 (antibody, human IgG1, kappa, V domains shown)
VH: QSLEESGGRLVTPGTPLTLTCTVSGFSLSSYAMSWVRQAPGKGLEYIGYIGDTTGIAYASWANGRFTISKTSTTVDLKITSPTTGDTATYFCARGWSYLDIWGQGTLVTVSS
VL: ALVMTQTPSSVSAAVGGTVTINCQASQNIYSNLAWYQQKPGQPPSLLIYQASTLASGVSSRFSGSGYGTEFTLTISDLECADAATYYCQGGYYSAALNTFGGGTEVVVKR
notes: Rabbit variable domains on human IgG1 / human kappa constant domains; also called AB4 chimeric
B5: AB3 (antibody, human IgG1, kappa, V domains shown)
VH: B1 VH with R19T, A23K, V48I, R87T, E89A, V93A, Y95F
VL: QVLTQTPSPVSAAVGGTVSISCQSSPSVYSNYLSWFQQKPGQPPKLLIYYASTLASGVPSRFKGSGSGTQFTLTISDVQCDDAATYYCAGGYSSSTRAFGGGTEVVVKR
notes: Rabbit variable domains on human IgG1 / human kappa constant domains; also called AB3 chimeric
B6: AB1 (antibody, human IgG1, kappa, V domains shown)
VH: QSLEESGGDLVKPEGSLTLTCKASGFDFSSGYWICWVRQAPGKGLELIACIYAGTSGSTSYASWARGRFTISETSSTTVTLQMTSLTAADSATYFCARNLYTYNSLWGQGTLVTVSS
VL: QVLTQTASSVSAAVGGTVTISCQSSQSVYDNNWLAWYQQKPGQPPMLLIYTVSTLASGVSSRFKGSGSGTQFTLTISGVQCDDAATYYCQGTYYSSGWNFAFGGGTEVVVKR
notes: Rabbit variable domains on human IgG1 / human kappa constant domains; purified by protein A from HEK-293 supernatant; also called AB1 chimeric; rabbit/human chimeric anti-PD-1 antibody AB1
B7: AB4HU (antibody, human IgG1, kappa, V domains shown)
VH: EVQLVESGGGLVQPGGSLRLSCTASGFSLSSYAMSWVRQAPGKGLEYIGYIGDTTGIAYASWANGRFTISKDNTKNTVDLQMNSLRAEDTAVYYCARGWSYLDIWGQGTLVTVSS
VL: ALVMTQSPSSLSASVGDRVTITCQASQNIYSNLAWYQQKPGKVPKLLIYQASTLASGVPSRFSGSGYGTDFTLTISSLQPEDVATYYCQGGYYSAALNTFGGGTKVEIKR
notes: Humanized, human gamma-1 / kappa constant domains as in the full-length entries; also called humanized form of antibody AB4
B8: AB2 (antibody, human IgG1, kappa, V domains shown)
VH: QEQLVESGGGLVQPEGSLTLTCTASGFSFSSYWMCWVRQAPGKGLEWIGCITTGSGSTYYASWAKRRFTISKTSSTTVTLQMTSLTAADTATYFCTRAFDLWGPGTLVTVSS
VL: DVVMTQTPASVSAVVGGTVTIKCQASQSIYSYLNWYQQKPGQPPKLLIYGASNLASGVSSRFKGSGSGTEFTLTISDLECADAATYYCQCSWLSGAVGNAFGGGTEVVVKR
notes: Rabbit variable domains on human IgG1 / human kappa constant domains; also called AB2 chimeric
B9: AB5 (antibody, human IgG1, kappa, V domains shown)
VH: QEQLEESGGDLVKPEGSLTLTCTASGFSFSSSHWICWVRQAPGKGLEWIACIYTGSIDVFYCASWAKGRFTISKPSSTTVTLQVPSLTAADTATYFCARAANTDTTYFNLWGPGTLVTVSS
VL: AYDMTQTPSSVSAAVGGTVTINCQASQSINNQLSWYQQKPGQPPKLLIYGASTLASGVPSRFTGSGSGTEFTLTISGVQCDDAATYYCHVHYCSGGSCFWAFGGGTEVVVKR
notes: Rabbit variable domains on human IgG1 / human kappa constant domains; also called AB5 chimeric
B10: AB5HU (antibody, human IgG1, kappa, V domains shown)
VH: EVQLLESGGGLVQPGGSLRLSCAASGFTFSSSHWICWVRQAPGKGLEWIACIYTGSIDVFYYASWAKGRFTISRDNSKNTLYLQMNSLRAEDTAVYYCARAANTDTTYFNLWGQGTLVTVSS
VL: AYDMTQSPSSLSASVGDRVTINCQASQSINNQLSWYQQKPGKVPKLLIYGASTLASGVPSRFTGSGSGTDFTLTISSLQPEDVATYYCHVHYCSGGSCFWAFGGGTKVEIKR
notes: Humanized, human gamma-1 / kappa constant domains as in the full-length entries; also called humanized form of antibody AB5; ABSHU [sic]
B11: recombinant human PD-L2 (ligand, UniProt Q9BQ51 20-220, looked up)
ligand: LFTVTVPKELYIIEHGSNVTLECNFDTGSHVNLGAITASLQKVENDTSPHRERATLLEEQLPLGKASFHIPQVQVRDEGQYQCIIIYGVAWDYKYLTLKVKASYRKINTHILKVPETDEVELTCQATGYPLAEVSWPNVSVPANTSHSRTPEGLYQVTSVLRLKPPPGRNFSCVFWNTHVRELTLASIDLQSQMEPRTHPT
modifications: monobiotinylated, His-tag purified
notes: recombinant soluble protein; also called huPD-L2

Positions count from the first letter of the chain named.

For the first test, the target named is T1, human PD-1 expressed on Jurkat cells (human, UniProt Q15116 25-288).
T1 construct: whole, on cells; also called huPD-1; Jurkat/huPD-1 clonal cell line
T1 sequence (Q15116 25-288): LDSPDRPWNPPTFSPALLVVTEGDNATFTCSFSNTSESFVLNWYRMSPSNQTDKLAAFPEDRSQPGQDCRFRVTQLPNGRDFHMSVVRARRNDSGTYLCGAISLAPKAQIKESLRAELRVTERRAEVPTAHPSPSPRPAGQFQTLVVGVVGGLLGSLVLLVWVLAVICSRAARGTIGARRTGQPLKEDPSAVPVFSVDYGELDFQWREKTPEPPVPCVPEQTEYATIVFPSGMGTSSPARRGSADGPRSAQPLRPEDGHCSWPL
As to the kind of experiment: flow cytometry on Jurkat/huPD-1 cells, anti-human Fc AF647 secondary, MFI. The protocol:
The human PD-1 gene was subcloned into the pcDNA3.1 mammalian expression vector and transfected into the Jurkat human T cell line. A clonal cell population expressing high levels of huPD-1 was generated by G418 drug selection and single-cell sorting. This Jurkat/huPD-1 clonal cell line was labeled with FVS520 viability dye (BD Biosciences, 1:2000 dilution) for 15 minutes at room temperature. The labeled cells were then diluted in FACS buffer (2% FBS in PBS), added to V-bottom 96-well plates (50,000 cells per well), and stained with 0-25 nM anti-huPD1 or isotype control antibody on ice for 30 minutes. Cells were washed to remove excess primary antibody, then labeled with Alexa luor 647-conjugated goat anti-human Fc secondary antibody (Jackson Immunoresearch, 1:1600 dilution) on ice for 20 minutes. The labeled cells were then washed with FACS buffer before acquisition on a BD FACSCalibur flow cytometer equipped with the Cytek AMS plate loader system. Data points show the median fluorescence intensity (MFI) on the AF647 channel after gating on live cells. Nonlinear regression methods were used to fit curves to each data set, and error bars represent the standard deviation of duplicate samples.
A general note: In flow cytometry, cells or beads pass a laser one at a time.
As to B1, the “EC50 (read off the curve)” value is approximately 1 nM.

In the case of B2, the “EC50 (read off the curve)” value was approximately 0.6 nM.

Another test addresses T1, human PD-1 expressed on Jurkat cells. As to the kind of experiment: blocking of biotinylated human PD-L2 binding to Jurkat/huPD-1 cells, flow cytometry, streptavidin-APC MFI. As to the method: The Jurkat/huPD-1 clonal cell line was labeled with FVS520 viability dye (BD Biosciences, 1:2000 dilution) for 15 minutes at room temperature. The labeled cells were then diluted in FACS buffer (2% FBS in PBS), added to V-bottom 96-well plates (50,000 cells per well), and stained with 0-100 nM anti-huPD1 or isotype control antibody on ice for 30 minutes. Cells were washed to remove excess antibody, then labeled with 15 ug/ml His-tag purified, monobiotinylated huPD-L2 on ice for 30 minutes. Cells were washed with FACS buffer, then labeled with 0.25 ug/ml APC-conjugated streptavidin on ice for 20 minutes. Cells were washed again with FACS buffer before acquisition on a FACSCalibur flow cytometer equipped with the Cytek AMS plate loader system. […] Error bars represent the standard deviation of duplicate samples.
For B1, the “IC50 (read off the curve)” value is approximately 1 nM.

As to B2, the “IC50 (read off the curve)” value was approximately 0.2 nM.

The target is the same in the next test. As to the kind of experiment: blocking of biotinylated human PD-L1 binding to Jurkat/huPD-1 cells, flow cytometry, streptavidin-APC MFI. The protocol:
The Jurkat/huPD-1 clonal cell line was labeled with FVS520 viability dye (BD Biosciences, 1:2000 dilution) for 15 minutes at room temperature. The labeled cells were then diluted in FACS buffer (2% FBS in PBS), added to V-bottom 96-well plates (50,000 cells per well), and stained with 0-100 nM anti-huPD1 or isotype control antibody on ice for 30 minutes. Cells were washed to remove excess antibody, then labeled with 15 ug/ml His-tag purified, monobiotinylated […] on ice for 30 minutes. Cells were washed again with FACS buffer, then labeled with 0.25 ug/ml APC-conjugated streptavidin on ice for 20 minutes. Cells were washed again with before acquisition on a BD FACSCalibur flow cytometer equipped with the Cytek AMS plate loader system. AB1HU-AB5HU results in this assay are shown in FIG. 3. and show the median fluorescence intensity (MFI) on the APC channel after gating on live cells. Error bars represent the standard deviation of duplicate samples.
Consider B1, for which the “IC50 (read off the curve)” value was approximately 1 nM.

For the molecule B2, the “IC50 (read off the curve)” value is approximately 2 nM.

B3: the “IC50 (read off the curve)” value is approximately 4 nM.

A further test deals with T2, human PD-1 extracellular domain (human, UniProt Q15116 25-170).
T2 construct: extracellular domain; Soluble analyte in the bio-layer interferometry assay; also called recombinant human PD-1 extracellular domain protein
T2 sequence (Q15116 25-170): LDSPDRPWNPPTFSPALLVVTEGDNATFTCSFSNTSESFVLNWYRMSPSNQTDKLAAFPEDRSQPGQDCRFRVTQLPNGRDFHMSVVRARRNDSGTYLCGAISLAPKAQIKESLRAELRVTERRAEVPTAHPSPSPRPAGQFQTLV
The test can be described thus: bio-layer interferometry (Octet Red 96), antibody on anti-human Fc biosensor, PD-1 ECD in solution, 1:1 global fit, 30 C. The protocol: The binding kinetics of selected anti-PD-1 antibodies AB1-AB5 and AB1HU-AB5HU was determined by bio-layer interferometry analysis on a ForteBio Octet Red 96 instrument. First, purified antibodies were produced by protein A chromatography using HEK-293 transiently-transfected antibody supernatants. This assay was performed by immobilizing the purified antibodies to anti-human Fc biosensors. PD-1 binding to and dissociation from the biosensors was then observed at various concentrations of PD-1. Specifically, eight anti-human Fc biosensors were placed into wells containing the same purified antibody for 5 minutes. Biosensors were equilibrated in kinetics buffer (Pall ForteBio) for 1 minute to establish a baseline. Association of PD-1 was observed by placing the biosensors into wells containing various concentrations of human PD-1 extracellular domain for 5 minutes. Dissociation was measured after transfer of the biosensors into kinetics buffer and monitoring the interferometry signals for 15 minutes. All steps of the assay were performed at 30° C. with shaking at 1000 RPM. The on and off rates (kon and koff) and the equilibrium binding constant KD were determined using the software provided by the manufacturer and were fit using a 1:1 binding global fit model comprising several of the concentrations tested.
In general terms: BLI is a label-free optical method that tracks binding on a fibre tip over time.
On to B4, for which binding was put at a Kd of 9.2 nM, the off-rate (koff) was 0.001 s⁻¹ and the kon was found to be 110000 M⁻¹ s⁻¹.

In turn, B1 returned a Kd of 1.1 nM, a koff of 0.00014 s⁻¹ and a kon of 130000 M⁻¹ s⁻¹.

Take B5: the dissociation constant Kd is 0.9 nM, the off-rate (koff) is 0.00012 s⁻¹ and the kon came out at 130000 M⁻¹ s⁻¹.

Consider B6, for which binding was put at a Kd of 4.8 nM, the koff is 0.00016 s⁻¹ and the on-rate constant (kon) worked out at 36000 M⁻¹ s⁻¹.

Turning to B2, the dissociation constant (Kd) came out at 17 nM, the off-rate (koff) amounted to 0.0015 s⁻¹ and the kon is 89000 M⁻¹ s⁻¹.

Take B7: the affinity, expressed as Kd, was 4.3 nM; the koff came to 0.00038 s⁻¹; the on-rate (kon) was determined as 87000 M⁻¹ s⁻¹.

For the molecule B8, the Kd was determined as 86 nM, the off-rate (koff) came to 0.0057 s⁻¹ and the kon worked out at 67000 M⁻¹ s⁻¹.

The molecule B9 yielded a dissociation constant Kd of 3.3 nM, an off-rate (koff) of 0.00026 s⁻¹ and a kon of 78000 M⁻¹ s⁻¹.

For the molecule B10, binding was characterised by a dissociation constant (Kd) of 6.6 nM, the koff was determined as 0.0004 s⁻¹ and the on-rate constant (kon) stood at 61000 M⁻¹ s⁻¹.

In turn, B3 returned a Kd of 16 nM, a koff of 0.0002 s⁻¹ and a kon of 12000 M⁻¹ s⁻¹.

A further test has as its target T1, human PD-1 expressed on Jurkat cells. As to the kind of experiment: flow cytometry on Jurkat/huPD-1 cells, biotinylated PD-L2 detected with streptavidin-APC, MFI.
For the molecule B11, the binding result is “binds”.
